# In article PMC5770965, “pKID Binds to KIX via an Unstructured Transition State with Nonnative Interactions” (Biophysical Journal, 2017):
# Non-standard residues stand in square brackets, D forms with d. No end group written: not given here. *: point of attachment. FITC = O=C1OC2(c3ccc(O)cc3Oc3cc(O)ccc32)c2ccc(NC(=S)*)cc21; pS = N[C@@H](COP(=O)(O)O)C(=O)O
# B1: FITC-pKID E126A (peptide, UniProt P15337-1 116-146, looked up)
# peptide: {FITC}-DSVTDSQKRRAILSRRP[pS]YRKILNDLSSDAP
# notes: source: synthetic peptide, bought: Biomatik
# B2: FITC-pKID R135G (peptide, UniProt P15337-1 116-146, looked up)
# peptide: {FITC}-DSVTDSQKRREILSRRP[pS]YGKILNDLSSDAP
# notes: also called A135G; source: synthetic peptide, bought: Biomatik
# B3: FITC-pKID P132G (peptide, UniProt P15337-1 116-146, looked up)
# peptide: {FITC}-DSVTDSQKRREILSRRG[pS]YRKILNDLSSDAP
# notes: also called A132G; source: synthetic peptide, bought: Biomatik
# B4: FITC-pKID T119G (peptide, UniProt P15337-1 116-146, looked up)
# peptide: {FITC}-DSVGDSQKRREILSRRP[pS]YRKILNDLSSDAP
# notes: the peptide has Gly in place of the natural Thr119; also called A119G; source: synthetic peptide, bought: Biomatik
# B5: FITC-pKID E126G (peptide, UniProt P15337-1 116-146, looked up)
# peptide: {FITC}-DSVTDSQKRRGILSRRP[pS]YRKILNDLSSDAP
# notes: also called A126G; source: synthetic peptide, bought: Biomatik
# B6: FITC-pKID K136A (peptide, UniProt P15337-1 116-146, looked up)
# peptide: {FITC}-DSVTDSQKRREILSRRP[pS]YRAILNDLSSDAP
# notes: as for B1
# B7: FITC-pKID S143A (peptide, UniProt P15337-1 116-146, looked up)
# peptide: {FITC}-DSVTDSQKRREILSRRP[pS]YRKILNDLSADAP
# notes: as for B1
# B8: FITC-pKID P132A (peptide, UniProt P15337-1 116-146, looked up)
# peptide: {FITC}-DSVTDSQKRREILSRRA[pS]YRKILNDLSSDAP
# notes: as for B1
# B9: FITC-pKID S143G (peptide, UniProt P15337-1 116-146, looked up)
# peptide: {FITC}-DSVTDSQKRREILSRRP[pS]YRKILNDLSGDAP
# notes: the text prints S143G; also called A143G; source: synthetic peptide, bought: Biomatik
# B10: FITC-pKID T119A (peptide, UniProt P15337-1 116-146, looked up)
# peptide: {FITC}-DSVADSQKRREILSRRP[pS]YRKILNDLSSDAP
# notes: as for B1
# B11: FITC-pKID K136G (peptide, UniProt P15337-1 116-146, looked up)
# peptide: {FITC}-DSVTDSQKRREILSRRP[pS]YRGILNDLSSDAP
# notes: also called A136G; source: synthetic peptide, bought: Biomatik
# B12: FITC-pKID R135A (peptide, UniProt P15337-1 116-146, looked up)
# peptide: {FITC}-DSVTDSQKRREILSRRP[pS]YAKILNDLSSDAP
# notes: as for B1
# B13: FITC-KID, not phosphorylated at Ser133 (CREB residues 116-146) (peptide, UniProt P15337-1 116-146, looked up)
# peptide: {FITC}-DSVTDSQKRREILSRRPSYRKILNDLSSDAP
# notes: 'pSer to Ser' in the text; also called ∆pS133; pS133S; source: synthetic peptide, bought: Biomatik
# B14: FITC-pKID wild-type (CREB residues 116-146, phosphorylated at Ser133) (peptide, UniProt P15337-1 116-146, looked up)
# peptide: {FITC}-DSVTDSQKRREILSRRP[pS]YRKILNDLSSDAP
# notes: also called wtFITCpKID; source: synthetic peptide, bought: Biomatik
# B15: FITC-pKID R125A (peptide, UniProt P15337-1 116-146, looked up)
# peptide: {FITC}-DSVTDSQKRAEILSRRP[pS]YRKILNDLSSDAP
# notes: as for B1
# B16: FITC-pKID R124A (peptide, UniProt P15337-1 116-146, looked up)
# peptide: {FITC}-DSVTDSQKAREILSRRP[pS]YRKILNDLSSDAP
# notes: as for B1
# B17: FITC-pKID S142A (peptide, UniProt P15337-1 116-146, looked up)
# peptide: {FITC}-DSVTDSQKRREILSRRP[pS]YRKILNDLASDAP
# notes: as for B1
# B18: FITC-pKID R131A (peptide, UniProt P15337-1 116-146, looked up)
# peptide: {FITC}-DSVTDSQKRREILSRAP[pS]YRKILNDLSSDAP
# notes: as for B1
# B19: FITC-pKID D140A (peptide, UniProt P15337-1 116-146, looked up)
# peptide: {FITC}-DSVTDSQKRREILSRRP[pS]YRKILNALSSDAP
# notes: as for B1
# B20: FITC-pKID S121A (peptide, UniProt P15337-1 116-146, looked up)
# peptide: {FITC}-DSVTDAQKRREILSRRP[pS]YRKILNDLSSDAP
# notes: as for B1
# B21: FITC-pKID I137A (peptide, UniProt P15337-1 116-146, looked up)
# peptide: {FITC}-DSVTDSQKRREILSRRP[pS]YRKALNDLSSDAP
# notes: as for B1
# B22: FITC-pKID L128A (peptide, UniProt P15337-1 116-146, looked up)
# peptide: {FITC}-DSVTDSQKRREIASRRP[pS]YRKILNDLSSDAP
# notes: as for B1
# B23: FITC-pKID L138A (peptide, UniProt P15337-1 116-146, looked up)
# peptide: {FITC}-DSVTDSQKRREILSRRP[pS]YRKIANDLSSDAP
# notes: as for B1
# B24: FITC-pKID I137A (peptide, UniProt P15337-1 116-146, looked up)
# peptide: {FITC}-DSVTDSQKRREILSRRP[pS]YRKALNDLSSDAP
# notes: as for B1
# B25: FITC-pKID L128A (peptide, UniProt P15337-1 116-146, looked up)
# peptide: {FITC}-DSVTDSQKRREIASRRP[pS]YRKILNDLSSDAP
# notes: as for B1
# B26: FITC-pKID Y134A (peptide, UniProt P15337-1 116-146, looked up)
# peptide: {FITC}-DSVTDSQKRREILSRRP[pS]ARKILNDLSSDAP
# notes: as for B1
# B27: FITC-pKID L138A (peptide, UniProt P15337-1 116-146, looked up)
# peptide: {FITC}-DSVTDSQKRREILSRRP[pS]YRKIANDLSSDAP
# notes: as for B1
# B28: FITC-pKID Y134A (peptide, UniProt P15337-1 116-146, looked up)
# peptide: {FITC}-DSVTDSQKRREILSRRP[pS]ARKILNDLSSDAP
# notes: as for B1
# Target: T1, KIX domain of CBP (UniProt P45481 586-665)
# T1 sequence (P45481 586-665): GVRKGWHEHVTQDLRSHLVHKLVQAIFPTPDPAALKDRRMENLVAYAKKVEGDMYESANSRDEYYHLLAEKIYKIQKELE
# Assay: stopped-flow fluorescence (association kinetics); pseudo-first order conditions with KIX in excess over FITC-pKID; biphasic; kass,fast = gradient of the observed fast rate against KIX concentration
# Settings: both partners purified
row,Molecule,kon [M⁻¹ s⁻¹]
1,B1,1.05e+07
2,B2,8e+06
3,B3,8.3e+06
4,B4,7.1e+06
5,B5,7.6e+06
6,B6,1.02e+07
7,B7,9.7e+06
8,B8,7.7e+06
9,B9,6.3e+06
10,B10,7.3e+06
11,B11,8.3e+06
12,B12,1.05e+07

# Target: T1, KIX domain of CBP
# Assay: dissociation kinetics by competition; FITC-pKID displaced from KIX by unlabeled competitor cMybTAD; kdiss = asymptote of the observed dissociation rate against competitor concentration
# Settings: both partners purified
row,Molecule,koff [s⁻¹]
1,B13,56.7
2,B14,0.81
3,B15,2.17
4,B16,0.51
5,B17,0.83
6,B18,7.66
7,B19,2.06
8,B20,0.71
9,B21,43.9
10,B22,15.7
11,B23,13.2

# Target: T1, KIX domain of CBP
# Assay: stopped-flow fluorescence (association kinetics) + dissociation kinetics by competition; KdKin calculated as kdiss/kass,fast
# Settings: both partners purified
row,Molecule,Kd [nM]
1,B1,90 ± 10
2,B2,1260 ± 70
3,B3,390 ± 10
4,B4,90 ± 10
5,B5,280 ± 30
6,B6,90 ± 10
7,B7,70 ± 10
8,B8,130 ± 10
9,B9,190 ± 20
10,B10,120 ± 10
11,B11,1270 ± 250
12,B12,240 ± 20

# Target: T1, KIX domain of CBP
# Assay: stopped-flow fluorescence (association kinetics); pseudo-first order conditions with KIX in excess over FITC-pKID; biphasic; kass,fast = gradient of the observed fast rate against KIX concentration
# Settings: both partners purified
# Remark: another data set of the same source
row,Molecule,kon [M⁻¹ s⁻¹]
1,B13,7.6e+06
2,B14,7.3e+06
3,B15,6.3e+06
4,B16,8.4e+06
5,B17,1.13e+07
6,B18,9.5e+06
7,B19,5.3e+06
8,B20,6.9e+06
9,B21,4.5e+06
10,B22,7.9e+06
11,B23,2.8e+06

# Target: T1, KIX domain of CBP
# Assay: fluorescence polarisation; equilibrium fluorescence anisotropy; KIX titrated into N-terminally FITC-labelled pKID peptide; biophysical buffer and conditions as in the accompanying article (ref. 42); KdEqub
# Settings: both partners purified
row,Molecule,Kd [nM]
1,B1,170
2,B2,1160
3,B3,440
4,B4,80
5,B5,250
6,B6,100
7,B7,70
8,B8,70
9,B9,90
10,B10,150
11,B11,2160
12,B12,100

# Target: T2, KIX domain of CBP (UniProt P45481 586-666)
# T2 construct: PDB 1KDX is the cited pKID/KIX structure and need not have the same limits
# T2 sequence (P45481 586-666): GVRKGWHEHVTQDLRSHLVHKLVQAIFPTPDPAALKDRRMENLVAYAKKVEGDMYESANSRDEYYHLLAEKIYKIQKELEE
# Assay: fluorescence polarisation; equilibrium fluorescence anisotropy of N-terminally FITC-labelled pKID peptides with KIX; buffer and conditions as in the accompanying article (ref. 42)
# Settings: both partners purified
row,Molecule,fold increase of Kd against wild type [fold]
1,B24,~100
2,B25,> 10
3,B26,~1000
4,B27,> 10

# Target: T1, KIX domain of CBP
# Assay: fluorescence polarisation; equilibrium fluorescence anisotropy; KIX titrated into N-terminally FITC-labelled pKID peptide; biophysical buffer and conditions as in the accompanying article (ref. 42); KdEqub
# Settings: both partners purified
# Remark: another data set of the same source
row,Molecule,Kd [nM]
1,B13,28700
2,B14,110
3,B15,220
4,B16,60
5,B17,120
6,B18,1230
7,B19,260
8,B20,120
9,B21,21600
10,B22,2490
11,B23,6300
12,B28,111000

# Target: KIX domain of CBP KIX domain (UniProt P45481)
# Sequence (P45481 whole entry, looked up, the tested form may be a part): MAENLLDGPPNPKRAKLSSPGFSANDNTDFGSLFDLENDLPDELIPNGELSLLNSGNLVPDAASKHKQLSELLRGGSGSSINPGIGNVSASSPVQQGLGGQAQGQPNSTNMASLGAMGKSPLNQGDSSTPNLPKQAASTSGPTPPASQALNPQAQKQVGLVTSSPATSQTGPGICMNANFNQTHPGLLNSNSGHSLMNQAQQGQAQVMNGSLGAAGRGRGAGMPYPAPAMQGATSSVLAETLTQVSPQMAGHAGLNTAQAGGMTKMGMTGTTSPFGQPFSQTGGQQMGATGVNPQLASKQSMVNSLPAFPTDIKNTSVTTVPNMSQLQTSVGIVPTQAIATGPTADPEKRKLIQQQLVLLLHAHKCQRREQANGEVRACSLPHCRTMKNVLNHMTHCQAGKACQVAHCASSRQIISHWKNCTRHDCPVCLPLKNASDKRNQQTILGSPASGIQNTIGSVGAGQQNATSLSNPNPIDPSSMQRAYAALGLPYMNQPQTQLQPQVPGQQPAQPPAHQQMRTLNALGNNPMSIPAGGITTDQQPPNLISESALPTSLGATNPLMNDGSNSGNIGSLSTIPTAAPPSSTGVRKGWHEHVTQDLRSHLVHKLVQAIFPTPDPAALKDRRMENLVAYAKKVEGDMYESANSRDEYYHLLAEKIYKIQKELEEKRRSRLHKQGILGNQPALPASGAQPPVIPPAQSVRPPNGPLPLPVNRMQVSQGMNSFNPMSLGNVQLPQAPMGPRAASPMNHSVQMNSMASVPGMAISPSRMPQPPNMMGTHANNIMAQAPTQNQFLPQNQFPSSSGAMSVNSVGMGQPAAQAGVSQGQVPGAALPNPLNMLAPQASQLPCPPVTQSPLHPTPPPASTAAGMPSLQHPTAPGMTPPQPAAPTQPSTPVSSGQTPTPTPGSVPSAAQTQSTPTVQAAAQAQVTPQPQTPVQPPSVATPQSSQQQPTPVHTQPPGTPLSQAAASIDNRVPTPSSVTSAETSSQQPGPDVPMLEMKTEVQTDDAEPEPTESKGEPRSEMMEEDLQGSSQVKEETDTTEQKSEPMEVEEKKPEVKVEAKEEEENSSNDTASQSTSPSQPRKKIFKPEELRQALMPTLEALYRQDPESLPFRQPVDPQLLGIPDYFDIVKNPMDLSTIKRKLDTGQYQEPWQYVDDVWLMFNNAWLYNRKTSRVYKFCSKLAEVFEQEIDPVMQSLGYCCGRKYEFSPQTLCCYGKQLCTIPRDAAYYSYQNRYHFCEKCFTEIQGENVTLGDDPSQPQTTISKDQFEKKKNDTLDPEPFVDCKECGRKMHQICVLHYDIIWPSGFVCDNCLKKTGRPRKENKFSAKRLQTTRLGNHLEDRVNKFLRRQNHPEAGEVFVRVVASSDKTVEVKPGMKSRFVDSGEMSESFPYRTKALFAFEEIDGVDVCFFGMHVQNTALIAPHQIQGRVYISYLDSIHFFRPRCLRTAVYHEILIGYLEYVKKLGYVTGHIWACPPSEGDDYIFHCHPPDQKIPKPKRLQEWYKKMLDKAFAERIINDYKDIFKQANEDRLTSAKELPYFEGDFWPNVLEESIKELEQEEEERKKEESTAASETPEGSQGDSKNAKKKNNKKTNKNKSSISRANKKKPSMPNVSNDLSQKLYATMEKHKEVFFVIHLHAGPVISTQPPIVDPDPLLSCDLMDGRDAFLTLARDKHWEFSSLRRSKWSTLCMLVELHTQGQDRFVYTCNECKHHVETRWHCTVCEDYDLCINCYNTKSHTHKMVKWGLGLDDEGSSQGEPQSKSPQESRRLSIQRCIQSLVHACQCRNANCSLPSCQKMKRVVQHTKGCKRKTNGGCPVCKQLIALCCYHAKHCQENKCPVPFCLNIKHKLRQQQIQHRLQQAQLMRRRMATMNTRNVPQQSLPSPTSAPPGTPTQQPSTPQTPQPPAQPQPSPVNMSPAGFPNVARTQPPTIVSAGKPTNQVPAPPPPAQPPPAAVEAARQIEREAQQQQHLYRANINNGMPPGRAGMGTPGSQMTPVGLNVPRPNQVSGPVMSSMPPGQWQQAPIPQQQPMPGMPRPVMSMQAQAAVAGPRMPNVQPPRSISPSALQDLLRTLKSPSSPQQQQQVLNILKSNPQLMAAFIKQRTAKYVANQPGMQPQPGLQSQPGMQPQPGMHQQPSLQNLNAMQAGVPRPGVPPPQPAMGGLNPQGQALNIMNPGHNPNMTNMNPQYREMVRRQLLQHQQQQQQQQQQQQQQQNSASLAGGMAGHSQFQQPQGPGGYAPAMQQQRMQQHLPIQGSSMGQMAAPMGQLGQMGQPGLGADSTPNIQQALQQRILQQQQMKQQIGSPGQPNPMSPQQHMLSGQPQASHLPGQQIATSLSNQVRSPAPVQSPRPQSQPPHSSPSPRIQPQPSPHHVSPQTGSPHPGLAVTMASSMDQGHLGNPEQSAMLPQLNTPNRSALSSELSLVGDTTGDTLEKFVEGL
# Assay: fluorescence anisotropy and stopped-flow kinetics
# Settings: reference: unphosphorylated KID peptide (Ser133); sites S133
row,Molecule,binding against the reference
1,CREB (KID / pKID region) 116-146 (from UniProt P15337-1) pSer133 pKID peptide,stronger

# Target: T1, KIX domain of CBP
# Assay: dissociation kinetics by competition; FITC-pKID displaced from KIX by unlabeled competitor cMybTAD; kdiss = asymptote of the observed dissociation rate against competitor concentration
# Settings: both partners purified
# Remark: another data set of the same source
row,Molecule,koff [s⁻¹]
1,B1,0.97
2,B2,10.1
3,B3,3.22
4,B4,0.67
5,B5,2.09
6,B6,0.94
7,B7,0.71
8,B8,0.99
9,B9,1.2
10,B10,0.88
11,B11,10.5
12,B12,2.5

# Target: T1, KIX domain of CBP
# Assay: stopped-flow fluorescence (association kinetics) + dissociation kinetics by competition; KdKin calculated as kdiss/kass,fast
# Settings: both partners purified
# Remark: another data set of the same source
row,Molecule,Kd [nM]
1,B13,7500 ± 1300
2,B14,110 ± 20
3,B15,340 ± 30
4,B16,60 ± 20
5,B17,70 ± 10
6,B18,810 ± 140
7,B19,390 ± 50
8,B20,100 ± 20
9,B21,9730 ± 1920
10,B22,2000 ± 160
11,B23,4730 ± 1920
